The assay addresses CD47 on the cell surface (A431, Raji, SKBR-3, NCI-H441, NK92MI-CD16a cells) (human) (UniProt Q08722). The experiment in a line: cell-based or functional assay.

Sequence of Anti-PD-L1(12A4)-Fc1-D1-D2-D3-Fc2 (bispecific antibody) (chain): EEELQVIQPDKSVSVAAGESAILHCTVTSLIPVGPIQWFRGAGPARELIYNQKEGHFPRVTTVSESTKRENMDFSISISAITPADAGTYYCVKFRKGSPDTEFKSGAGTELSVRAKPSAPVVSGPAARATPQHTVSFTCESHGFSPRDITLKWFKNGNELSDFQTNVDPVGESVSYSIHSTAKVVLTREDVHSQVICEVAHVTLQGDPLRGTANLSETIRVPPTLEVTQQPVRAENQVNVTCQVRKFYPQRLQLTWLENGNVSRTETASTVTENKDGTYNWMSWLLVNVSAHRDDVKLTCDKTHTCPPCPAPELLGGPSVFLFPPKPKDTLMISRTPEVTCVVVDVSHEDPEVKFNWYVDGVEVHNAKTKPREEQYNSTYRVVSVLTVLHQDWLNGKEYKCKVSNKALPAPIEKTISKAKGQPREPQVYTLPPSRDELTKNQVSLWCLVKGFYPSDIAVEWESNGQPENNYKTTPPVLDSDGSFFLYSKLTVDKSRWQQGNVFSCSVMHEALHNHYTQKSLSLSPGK
Sequence of Anti-PD-L1(12A4)-Fc1-D1-D2-Fc2 (bispecific antibody) (chain): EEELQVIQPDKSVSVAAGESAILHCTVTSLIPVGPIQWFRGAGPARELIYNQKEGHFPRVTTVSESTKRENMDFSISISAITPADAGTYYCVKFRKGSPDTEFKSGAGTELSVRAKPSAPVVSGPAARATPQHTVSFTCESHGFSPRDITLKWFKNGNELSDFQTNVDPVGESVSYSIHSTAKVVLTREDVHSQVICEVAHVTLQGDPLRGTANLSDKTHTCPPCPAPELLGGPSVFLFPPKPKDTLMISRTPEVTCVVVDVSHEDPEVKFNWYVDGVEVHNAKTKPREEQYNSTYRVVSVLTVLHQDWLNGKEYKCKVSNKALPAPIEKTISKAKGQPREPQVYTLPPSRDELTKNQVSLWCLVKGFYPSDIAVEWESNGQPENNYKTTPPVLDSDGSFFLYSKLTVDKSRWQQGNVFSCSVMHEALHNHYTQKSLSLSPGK
Sequence of Anti-PD-L1(12A4)-Fc1-D1-Fc2 (bispecific antibody) (chain): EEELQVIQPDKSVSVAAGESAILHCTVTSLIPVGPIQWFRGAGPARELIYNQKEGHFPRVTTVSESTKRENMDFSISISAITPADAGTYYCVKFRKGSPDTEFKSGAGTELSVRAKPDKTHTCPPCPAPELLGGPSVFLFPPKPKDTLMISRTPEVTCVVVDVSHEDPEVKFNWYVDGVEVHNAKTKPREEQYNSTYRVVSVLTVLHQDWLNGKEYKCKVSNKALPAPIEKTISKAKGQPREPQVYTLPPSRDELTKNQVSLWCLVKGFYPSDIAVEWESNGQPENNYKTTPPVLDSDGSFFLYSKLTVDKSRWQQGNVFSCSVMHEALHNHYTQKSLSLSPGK

Consider “Anti-PD-L1(12A4)-Fc1-D1-D2-Fc2 (bispecific antibody)”, for which the toxic side effects caused by NK cells (ADCC on NK92MI-CD16a cells), reduction against the D1^m proteins was more than 1000 fold.
In turn, “Anti-PD-L1(12A4)-Fc1-D1-Fc2 (bispecific antibody)” gave a toxic side effects caused by NK cells (ADCC on NK92MI-CD16a cells), reduction against the D1^m proteins of more than 1000 fold.
“Anti-PD-L1(12A4)-Fc1-D1-D2-D3-Fc2 (bispecific antibody)” came in with a toxic side effects caused by NK cells (ADCC on NK92MI-CD16a cells), reduction against the D1^m proteins of more than 1000 fold.

Values taken from US20200157223A1.
